Data published in paper PMC2606918 (Molecular pharmacology, 2008).
Each block holds one molecule with its values, some of them ahead of it.

What was measured:
[1] = molecular target: T1, GST-D2-IC3 (third intracellular loop of the rat dopamine D2L receptor) (Rattus norvegicus, UniProt P61169); assay: GST pull-down binding of purified arrestin to GST-D2-IC3
T1 sequence (P61169 211-371): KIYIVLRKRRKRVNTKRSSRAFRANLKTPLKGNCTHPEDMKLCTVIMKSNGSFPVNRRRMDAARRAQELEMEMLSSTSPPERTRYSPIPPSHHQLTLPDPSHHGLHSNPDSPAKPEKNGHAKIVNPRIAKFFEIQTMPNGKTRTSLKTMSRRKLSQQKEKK

[2] = molecular target: T2, GST-D3-IC3 (third intracellular loop of the rat dopamine D3 receptor) (Rattus norvegicus, UniProt P19020); assay: GST pull-down binding of purified arrestin to GST-D3-IC3
T2 sequence (P19020 210-372): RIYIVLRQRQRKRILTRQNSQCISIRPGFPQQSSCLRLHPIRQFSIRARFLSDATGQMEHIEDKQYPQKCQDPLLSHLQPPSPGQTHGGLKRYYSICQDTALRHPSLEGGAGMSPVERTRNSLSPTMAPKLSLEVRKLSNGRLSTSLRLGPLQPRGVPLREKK

[3] = molecular target: T3, D2-IC3ΔNT5 (Rattus norvegicus, UniProt P61169); assay: GST pull-down binding of arrestin3 to D2-IC3ΔNT5; conditions: versus D2-IC3; 400 ng fusion protein, 100 ng arrestin3
T3 sequence (P61169 216-371 limits assumed): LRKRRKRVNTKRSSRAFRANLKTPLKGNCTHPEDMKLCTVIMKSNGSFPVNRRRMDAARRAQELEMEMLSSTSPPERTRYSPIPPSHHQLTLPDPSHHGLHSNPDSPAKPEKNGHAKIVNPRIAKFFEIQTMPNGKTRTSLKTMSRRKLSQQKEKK

[4] = molecular target: T4, D2-IC3ΔNT10 (Rattus norvegicus, UniProt P61169); assay: GST pull-down binding of arrestin3 to D2-IC3ΔNT10; conditions: versus D2-IC3; 400 ng fusion protein, 100 ng arrestin3
T4 sequence (P61169 221-371 limits assumed): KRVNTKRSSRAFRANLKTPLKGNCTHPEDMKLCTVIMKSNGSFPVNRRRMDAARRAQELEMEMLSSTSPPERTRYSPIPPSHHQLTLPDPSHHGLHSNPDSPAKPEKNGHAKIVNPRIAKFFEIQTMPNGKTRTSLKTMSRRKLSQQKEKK

[5] = molecular target: wild type D2 receptor (Rattus norvegicus, UniProt P61169); conditions: PTX 50 ng/ml overnight prior to agonist treatment
[6] = molecular target: D2-A4 mutant receptor (Rattus norvegicus, UniProt P61169, I212A/I214A/V215A/Y213A); conditions: PTX 50 ng/ml overnight prior to agonist treatment
[7] = molecular target: purified bovine arrestin3 (bovine, UniProt P32120 1-420); assay: pull-down
[8] = amount of arrestin3 bound to 300 ng of GST-IC3
[9] = rate of association, data not shown
[10] = saturation analysis, 300 ng GST-IC3, 30 min room temperature

purified bovine arrestin3, sequence (P32120 whole entry): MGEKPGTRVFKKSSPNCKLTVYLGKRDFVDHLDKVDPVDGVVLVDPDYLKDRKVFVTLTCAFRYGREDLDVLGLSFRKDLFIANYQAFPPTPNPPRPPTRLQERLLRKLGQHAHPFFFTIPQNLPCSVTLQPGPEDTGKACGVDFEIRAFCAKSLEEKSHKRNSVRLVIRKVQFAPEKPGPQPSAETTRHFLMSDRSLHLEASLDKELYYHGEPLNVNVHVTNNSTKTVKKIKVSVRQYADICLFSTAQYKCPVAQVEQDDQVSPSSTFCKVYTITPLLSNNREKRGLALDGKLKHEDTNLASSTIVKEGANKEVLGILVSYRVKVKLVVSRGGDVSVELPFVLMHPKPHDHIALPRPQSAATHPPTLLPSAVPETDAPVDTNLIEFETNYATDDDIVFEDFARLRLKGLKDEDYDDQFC
wild type D2 receptor, sequence (P61169 whole entry): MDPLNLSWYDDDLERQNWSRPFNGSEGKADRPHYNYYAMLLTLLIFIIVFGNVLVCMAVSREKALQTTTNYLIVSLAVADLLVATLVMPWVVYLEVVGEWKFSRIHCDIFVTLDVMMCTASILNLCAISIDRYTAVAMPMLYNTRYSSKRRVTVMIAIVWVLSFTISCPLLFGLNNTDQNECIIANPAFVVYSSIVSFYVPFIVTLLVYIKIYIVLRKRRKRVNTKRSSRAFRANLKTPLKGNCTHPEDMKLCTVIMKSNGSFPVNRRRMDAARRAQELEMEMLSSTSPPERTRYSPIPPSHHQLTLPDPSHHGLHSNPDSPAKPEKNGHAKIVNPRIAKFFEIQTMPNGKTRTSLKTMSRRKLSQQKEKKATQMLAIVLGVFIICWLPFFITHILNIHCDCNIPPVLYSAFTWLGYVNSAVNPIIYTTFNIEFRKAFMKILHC
D2-A4 mutant receptor, sequence (P61169 whole entry I212A/Y213A/I214A/V215A): as the sequence (P61169 whole entry) above, with I212A, Y213A, I214A, V215A counted along it

Molecule: Arrestin2: purified bovine arrestin2, non-visual arrestin also termed β-arrestin 1
binding of arrestin2 ([1]; GST pull-down, in words): bound weakly
binding of arrestin2 ([2]; GST pull-down, in words): bound weakly

Molecule: pertussis toxin [PTX]
effect of PTX on activation of ERKs [5]: greatly decreased
effect of PTX on activation of ERKs [6]: greatly decreased

B1: GST-D2-IC3 (GST fusion of the third intracellular loop of the rat dopamine D2L receptor, amino acids 211-371) (domain or fragment, UniProt P61169 211-371, looked up)
chain: KIYIVLRKRRKRVNTKRSSRAFRANLKTPLKGNCTHPEDMKLCTVIMKSNGSFPVNRRRMDAARRAQELEMEMLSSTSPPERTRYSPIPPSHHQLTLPDPSHHGLHSNPDSPAKPEKNGHAKIVNPRIAKFFEIQTMPNGKTRTSLKTMSRRKLSQQKEKK
Kd [7]: 72 nM

Second part, the molecule after the results:

Bmax [1, 8]: 10.1 ± 0.6 ng
half-time for binding [1, 9]: approximately 2 min
time at which binding approached equilibrium [1, 9]: ≤ 15 min
Kd [1, 10]: 72 ± 14 nM
Kd ([1]; summary for D2-like receptor IC3 (D2-IC3 and D3-IC3), GST pull-down): 70 to 80 nM
decrease of arrestin binding [3]: about 60%
decrease of arrestin binding [4]: about 60%
Bmax [2, 8]: 10.2 ± 0.6 ng
Kd [2, 10]: 79 ± 14 nM
Molecule: Arrestin3: purified bovine arrestin3, non-visual arrestin also termed β-arrestin 2

Kd [7]: 79 nM
B2: GST-D3-IC3 (GST fusion of the third intracellular loop of the rat dopamine D3 receptor, amino acids 210-372) (domain or fragment, UniProt P19020 210-372, looked up)
chain: RIYIVLRQRQRKRILTRQNSQCISIRPGFPQQSSCLRLHPIRQFSIRARFLSDATGQMEHIEDKQYPQKCQDPLLSHLQPPSPGQTHGGLKRYYSICQDTALRHPSLEGGAGMSPVERTRNSLSPTMAPKLSLEVRKLSNGRLSTSLRLGPLQPRGVPLREKK
